In article PMC3433420:
Several values for one entry are separate records, joined by “and”; a condition that tells them apart may be missing. Identical values can stand only once. Values belong to the substance of their own block, whether it stands above or below them.

Columns and labels:
[1] = molecular target: ABL1 SH2 domain (human) (UniProt P00519); test: peptide or protein array; SH2/PTB proteins spotted on aldehyde slides, rhodamine peptide titrated in buffer B (20 mM HEPES, 100 mM KCl, 0.1% Tween-20, 5 mM DTT, pH 7.8), 1 h at room temperature; replicate assays
[2] = molecular target: ABL2 SH2 domain (human) (UniProt P42684); test: as above
[3] = molecular target: BLK SH2 domain (human) (UniProt P51451); test: as above
[4] = molecular target: BLNK SH2 domain (human) (UniProt Q8WV28); test: as above
[5] = molecular target: BMX SH2 domain (human) (UniProt P51813); test: as above
[6] = molecular target: CRK SH2 domain (human) (UniProt P46108); test: as above
[7] = molecular target: CRKL SH2 domain (human) (UniProt P46109); test: as above
[8] = molecular target: GRB10 SH2 domain (human) (UniProt Q13322); test: as above
[9] = molecular target: HCK SH2 domain (human) (UniProt P08631); test: as above
[10] = molecular target: HSH2D SH2 domain (human) (UniProt Q96JZ2); test: as above
[11] = molecular target: NCK2 SH2 domain (human) (UniProt O43639); test: as above
[12] = molecular target: PIK3R2 tandem SH2 domains (human) (UniProt O00459); test: as above
[13] = molecular target: PIK3R3 tandem SH2 domains (human); test: as above
[14] = molecular target: PLCG2 tandem SH2 domains (human); test: as above
[15] = molecular target: SH2D1A SH2 domain (human) (UniProt O60880); test: as above
[16] = molecular target: SH2D3A SH2 domain (human) (UniProt Q9BRG2); test: as above
[17] = molecular target: SH3BP2 SH2 domain (human) (UniProt P78314); test: as above
[18] = molecular target: SHF SH2 domain (human) (UniProt Q7M4L6); test: as above
[19] = molecular target: SRC SH2 domain (human) (UniProt P12931); test: as above
[20] = molecular target: SYK N-terminal SH2 domain (human); test: as above
[21] = molecular target: SYK tandem SH2 domains (human); test: as above
[22] = molecular target: TNS4 SH2 domain (human) (UniProt Q8IZW8); test: as above
[23] = molecular target: YES1 SH2 domain (human) (UniProt P07947); test: as above
[24] = molecular target: ZAP70 C-terminal SH2 domain (human) (UniProt P43403); test: as above
[25] = molecular target: ErbB3 Y789 non-phosphorylated peptide, rhodamine-labelled (human); test: fluorescence polarisation; saturation binding in solution: rhodamine peptide fixed at 10 nM, protein titrated 0.002-10 uM, 20 min at room temperature; assay buffer 20 mM HEPES, 100 mM KCl, 0.1% Tween-20, 5 mM DTT, pH 7.8; apparent KD
[26] = molecular target: GRAP2 SH2 domain (human) (UniProt O75791); test: peptide or protein array; SH2/PTB proteins spotted on aldehyde slides, rhodamine peptide titrated in buffer B (20 mM HEPES, 100 mM KCl, 0.1% Tween-20, 5 mM DTT, pH 7.8), 1 h at room temperature; replicate assays
[27] = molecular target: LCK SH2 domain (human) (UniProt P06239); test: as above
[28] = molecular target: NCK1 SH2 domain (human) (UniProt P16333); test: as above
[29] = molecular target: PIK3R1 C-terminal SH2 domain (human); test: as above
[30] = molecular target: PTPN11 tandem SH2 domains (human); test: as above
[31] = molecular target: RASA1 C-terminal SH2 domain (human); test: as above
[32] = molecular target: RASA1 N-terminal SH2 domain (human) (UniProt P20936); test: as above
[33] = molecular target: SH2B3 SH2 domain (human) (UniProt Q9UQQ2); test: as above
[34] = molecular target: SH2D1B SH2 domain (human) (UniProt O14796); test: as above
[35] = molecular target: SH2D3C SH2 domain (human) (UniProt Q8N5H7); test: as above
[36] = molecular target: SHC3 SH2 domain (human) (UniProt Q92529); test: as above
Chain of SHC3 SH2 domain (human) (Q92529 499-590): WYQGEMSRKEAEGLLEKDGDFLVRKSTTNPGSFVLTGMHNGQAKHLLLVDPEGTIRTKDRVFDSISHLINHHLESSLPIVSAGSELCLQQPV

Chain of BLK SH2 domain (human) (P51451 124-220): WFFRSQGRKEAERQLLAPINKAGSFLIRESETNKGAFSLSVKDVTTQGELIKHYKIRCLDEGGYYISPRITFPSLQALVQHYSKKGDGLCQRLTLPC
Chain of ABL2 SH2 domain (human) (P42684 173-263): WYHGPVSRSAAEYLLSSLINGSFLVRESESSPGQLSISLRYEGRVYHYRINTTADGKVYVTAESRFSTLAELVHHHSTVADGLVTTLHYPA
Chain of SH2D1B SH2 domain (human) (O14796 5-101): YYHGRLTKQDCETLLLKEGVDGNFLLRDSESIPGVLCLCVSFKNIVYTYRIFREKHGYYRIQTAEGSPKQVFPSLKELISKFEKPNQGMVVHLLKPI
Chain of ZAP70 C-terminal SH2 domain (human) (P43403 whole entry, the tested form may be a part): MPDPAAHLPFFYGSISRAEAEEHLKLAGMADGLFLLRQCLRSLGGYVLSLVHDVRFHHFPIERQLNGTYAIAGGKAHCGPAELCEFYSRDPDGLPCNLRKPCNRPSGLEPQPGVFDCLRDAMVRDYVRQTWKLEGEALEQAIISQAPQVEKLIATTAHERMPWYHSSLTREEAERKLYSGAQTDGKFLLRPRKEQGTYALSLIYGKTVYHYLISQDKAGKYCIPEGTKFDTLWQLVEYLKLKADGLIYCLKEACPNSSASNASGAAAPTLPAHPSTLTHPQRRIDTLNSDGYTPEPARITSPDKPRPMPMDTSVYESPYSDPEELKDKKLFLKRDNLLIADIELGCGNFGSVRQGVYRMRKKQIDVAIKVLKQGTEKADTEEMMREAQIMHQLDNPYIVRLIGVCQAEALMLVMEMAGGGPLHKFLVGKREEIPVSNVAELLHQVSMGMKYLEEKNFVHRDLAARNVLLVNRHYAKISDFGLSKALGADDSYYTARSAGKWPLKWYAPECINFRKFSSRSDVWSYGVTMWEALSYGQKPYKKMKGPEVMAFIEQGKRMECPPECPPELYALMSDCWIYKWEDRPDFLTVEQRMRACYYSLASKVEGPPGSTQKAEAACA
Chain of SH2D1A SH2 domain (human) (O60880 6-104): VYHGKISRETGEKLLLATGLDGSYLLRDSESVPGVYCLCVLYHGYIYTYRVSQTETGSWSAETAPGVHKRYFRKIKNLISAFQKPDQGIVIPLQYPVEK
Chain of YES1 SH2 domain (human) (P07947 158-255): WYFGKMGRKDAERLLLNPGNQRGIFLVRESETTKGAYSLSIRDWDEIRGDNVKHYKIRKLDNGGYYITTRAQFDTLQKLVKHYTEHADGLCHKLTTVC
Chain of SH3BP2 SH2 domain (human) (P78314 457-555): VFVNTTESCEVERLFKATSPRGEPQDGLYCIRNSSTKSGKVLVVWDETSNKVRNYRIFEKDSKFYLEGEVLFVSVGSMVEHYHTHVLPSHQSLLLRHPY
Chain of SH2D3A SH2 domain (human) (Q9BRG2 15-114): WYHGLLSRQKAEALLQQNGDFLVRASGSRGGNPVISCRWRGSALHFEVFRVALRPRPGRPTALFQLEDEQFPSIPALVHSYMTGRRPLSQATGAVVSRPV
Chain of SHF SH2 domain (human) (Q7M4L6 323-418): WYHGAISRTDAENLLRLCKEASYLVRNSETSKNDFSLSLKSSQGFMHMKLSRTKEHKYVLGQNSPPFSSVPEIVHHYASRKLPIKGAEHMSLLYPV
Chain of HSH2D SH2 domain (human) (Q96JZ2 34-125): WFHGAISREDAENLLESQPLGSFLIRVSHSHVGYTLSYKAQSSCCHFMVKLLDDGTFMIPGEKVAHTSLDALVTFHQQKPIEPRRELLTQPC
Chain of GRB10 SH2 domain (human) (Q13322 493-574): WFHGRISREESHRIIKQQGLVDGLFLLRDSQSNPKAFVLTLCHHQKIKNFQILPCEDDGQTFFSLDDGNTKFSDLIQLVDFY
Chain of SH2D3C SH2 domain (human) (Q8N5H7 220-319): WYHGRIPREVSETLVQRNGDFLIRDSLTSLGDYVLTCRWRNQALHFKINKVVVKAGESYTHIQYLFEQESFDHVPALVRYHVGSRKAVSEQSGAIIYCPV
Chain of ABL1 SH2 domain (human) (P00519 127-217): as the sequence (P42684 173-263) above, with S9N, L18G, L35R, T53A, A54S, V58L, T61S, A62S, S67N, V84I counted along it
Chain of NCK2 SH2 domain (human) (O43639 285-380): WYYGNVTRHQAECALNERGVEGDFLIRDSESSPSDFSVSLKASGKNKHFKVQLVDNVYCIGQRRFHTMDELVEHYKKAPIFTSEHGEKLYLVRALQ
Chain of CRKL SH2 domain (human) (P46109 14-102): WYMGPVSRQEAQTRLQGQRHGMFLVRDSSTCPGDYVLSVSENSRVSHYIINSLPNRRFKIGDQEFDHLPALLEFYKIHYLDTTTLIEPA
Chain of GRAP2 SH2 domain (human) (O75791 58-149): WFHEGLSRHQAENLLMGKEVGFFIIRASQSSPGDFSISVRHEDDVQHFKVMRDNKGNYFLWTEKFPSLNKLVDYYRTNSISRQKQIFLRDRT
Chain of BMX SH2 domain (human) (P51813 296-392): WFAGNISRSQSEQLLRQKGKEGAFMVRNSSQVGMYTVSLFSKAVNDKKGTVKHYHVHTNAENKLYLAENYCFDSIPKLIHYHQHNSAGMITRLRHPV
Chain of CRK SH2 domain (human) (P46108 13-118): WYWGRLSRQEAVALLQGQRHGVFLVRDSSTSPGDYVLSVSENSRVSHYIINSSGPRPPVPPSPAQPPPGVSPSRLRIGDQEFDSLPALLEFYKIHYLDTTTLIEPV
Chain of PIK3R2 tandem SH2 domains (human) (O00459 whole entry, the tested form may be a part): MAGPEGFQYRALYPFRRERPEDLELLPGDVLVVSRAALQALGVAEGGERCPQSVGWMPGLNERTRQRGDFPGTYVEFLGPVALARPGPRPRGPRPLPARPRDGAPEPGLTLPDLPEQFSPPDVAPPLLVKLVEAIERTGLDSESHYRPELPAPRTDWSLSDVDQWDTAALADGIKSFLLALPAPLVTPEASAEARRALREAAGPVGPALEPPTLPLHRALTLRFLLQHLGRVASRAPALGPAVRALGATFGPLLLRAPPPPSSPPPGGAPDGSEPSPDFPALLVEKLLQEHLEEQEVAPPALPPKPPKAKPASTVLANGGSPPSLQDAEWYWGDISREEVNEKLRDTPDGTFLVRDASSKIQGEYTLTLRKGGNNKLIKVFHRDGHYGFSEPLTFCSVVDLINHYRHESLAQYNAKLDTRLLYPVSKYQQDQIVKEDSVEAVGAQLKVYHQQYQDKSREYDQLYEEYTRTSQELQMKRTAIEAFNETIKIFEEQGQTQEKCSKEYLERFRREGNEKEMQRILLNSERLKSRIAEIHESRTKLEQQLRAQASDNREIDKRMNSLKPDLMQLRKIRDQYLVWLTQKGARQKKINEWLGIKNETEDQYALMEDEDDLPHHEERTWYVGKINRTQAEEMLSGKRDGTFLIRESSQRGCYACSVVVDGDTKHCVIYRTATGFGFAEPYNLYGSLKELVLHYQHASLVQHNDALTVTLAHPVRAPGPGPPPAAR
Chain of SH2B3 SH2 domain (human) (Q9UQQ2 364-462): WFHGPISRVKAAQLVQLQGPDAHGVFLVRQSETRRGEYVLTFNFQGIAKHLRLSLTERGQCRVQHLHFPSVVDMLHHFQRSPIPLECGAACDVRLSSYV
Chain of LCK SH2 domain (human) (P06239 127-224): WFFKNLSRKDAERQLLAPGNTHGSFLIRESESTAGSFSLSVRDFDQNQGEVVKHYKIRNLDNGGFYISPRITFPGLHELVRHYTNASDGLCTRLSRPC
Chain of BLNK SH2 domain (human) (Q8WV28 346-453): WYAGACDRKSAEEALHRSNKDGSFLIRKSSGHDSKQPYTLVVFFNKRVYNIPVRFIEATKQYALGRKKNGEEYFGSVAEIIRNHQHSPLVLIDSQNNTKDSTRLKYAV
Chain of HCK SH2 domain (human) (P08631 144-241): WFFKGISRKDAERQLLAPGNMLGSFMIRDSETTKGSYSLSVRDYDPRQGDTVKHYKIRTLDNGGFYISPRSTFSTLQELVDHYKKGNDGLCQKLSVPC
Chain of RASA1 N-terminal SH2 domain (human) (P20936 whole entry, the tested form may be a part): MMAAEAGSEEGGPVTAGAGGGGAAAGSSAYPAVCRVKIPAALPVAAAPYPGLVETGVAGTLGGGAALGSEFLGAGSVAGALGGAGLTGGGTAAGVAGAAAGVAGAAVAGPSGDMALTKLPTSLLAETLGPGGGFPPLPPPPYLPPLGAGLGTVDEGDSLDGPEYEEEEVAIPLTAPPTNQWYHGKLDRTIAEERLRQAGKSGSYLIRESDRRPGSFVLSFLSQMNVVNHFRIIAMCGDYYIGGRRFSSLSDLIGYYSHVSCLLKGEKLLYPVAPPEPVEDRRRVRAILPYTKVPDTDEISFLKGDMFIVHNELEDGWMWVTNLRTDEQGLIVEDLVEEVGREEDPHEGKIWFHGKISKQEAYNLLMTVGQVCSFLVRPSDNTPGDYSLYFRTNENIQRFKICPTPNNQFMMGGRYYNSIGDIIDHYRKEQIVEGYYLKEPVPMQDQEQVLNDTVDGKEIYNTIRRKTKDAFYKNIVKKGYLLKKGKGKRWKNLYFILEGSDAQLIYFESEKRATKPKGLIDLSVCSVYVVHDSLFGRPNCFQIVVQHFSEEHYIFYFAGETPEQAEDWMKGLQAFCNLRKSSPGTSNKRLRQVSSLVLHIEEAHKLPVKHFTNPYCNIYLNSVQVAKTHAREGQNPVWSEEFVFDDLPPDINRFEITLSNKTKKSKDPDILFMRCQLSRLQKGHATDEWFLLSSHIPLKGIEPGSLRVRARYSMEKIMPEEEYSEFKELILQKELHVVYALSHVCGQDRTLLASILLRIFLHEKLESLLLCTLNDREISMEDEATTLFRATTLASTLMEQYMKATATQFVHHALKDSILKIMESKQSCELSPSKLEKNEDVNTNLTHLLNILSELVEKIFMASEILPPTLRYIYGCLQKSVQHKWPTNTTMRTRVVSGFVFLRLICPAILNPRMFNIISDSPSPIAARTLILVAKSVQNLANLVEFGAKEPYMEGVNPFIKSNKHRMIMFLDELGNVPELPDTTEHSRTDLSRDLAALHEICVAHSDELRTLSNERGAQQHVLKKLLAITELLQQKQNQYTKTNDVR

Kd [1]: 0.25 µM
Kd [2]: 0.906 µM and 0.283 µM
Kd [3]: 1.15 µM and 1.16 µM and 0.583 µM
Kd [4]: 4 µM
Kd [5]: 0.419 µM
Kd [6]: 64.5 µM
Kd [7]: 0.107 µM
Kd [8]: 0.234 µM
Kd [9]: 0.07 µM
Kd [10]: 0.994 µM
Kd [11]: 0.211 µM
Kd [12]: 1.34 µM
Kd [13]: 0.544 µM
Kd [14]: 1.25 µM and 1.38 µM
Kd [15]: 0.766 µM
Kd [16]: 0.605 µM
Kd [17]: 2.36 µM and 10.9 µM and 1.24 µM
Kd [18]: 1.19 µM
Kd [19]: 0.443 µM
Kd [20]: 15.6 µM and 9.49 µM
Kd [21]: 0.811 µM and 1.29 µM and 0.285 µM
Kd [22]: 0.323 µM
Kd [23]: 1.32 µM and 0.818 µM
Kd [24]: 0.791 µM
Substance: ErbB4 pY1221 phosphopeptide (18-mer), rhodamine-labelled, for protein microarrays

Kd [25]: 1.59 µM
Substance: PIK3R1 tandem SH2 domains (from UniProt P27986 1-724) (domain or fragment)

Kd [2]: 1.37 µM and 1.73 µM and 0.268 µM
Kd [26]: 0.852 µM
Kd [8]: 1.27 µM
Kd [10]: 2.21 µM
Kd [27]: 1.24 µM
Kd [28]: 0.724 µM
Kd [29]: 0.438 µM
Kd [13]: 7.82 µM and 10.5 µM
Kd [30]: 0.177 µM
Kd [31]: 10.4 µM
Kd [32]: 0.685 µM
Kd [33]: 1.18 µM
Kd [15]: 0.823 µM and 1.61 µM and 1.68 µM
Kd [34]: 0.404 µM and 1.28 µM and 1.34 µM
Kd [16]: 0.603 µM and 0.79 µM and 0.912 µM
Kd [35]: 9.36 µM
Kd [36]: 7.66 µM
Kd [18]: 2.7 µM and 8.5 µM
Kd [20]: 3.04 µM and 3.45 µM and 0.803 µM
Kd [23]: 1.18 µM and 1.17 µM and 0.421 µM
Kd [24]: 1.53 µM and 1.52 µM and 0.404 µM
Substance: ErbB4 pY733 phosphopeptide (18-mer), rhodamine-labelled, for protein microarrays
